{"source": "patent US20060286609A1", "about": "(BIOCHECK, published 2006)", "molecules": {"B1": {"name": "rabbit monoclonal anti-mouse Id1, clone #BCH-1/#37-2 (antibody, V domains shown)", "VH": "QSVEESGGRLVTPGTPLTLTCKVSGFDINSYAMDWFRQAPGKGLEWIGMMSTRGNTYYTSWAKGRFTISKTSSTTVDLKMTSLTTEDTATYFCARGGLWGPGTLVTVSS", "VL": "RVLTQTASPVSAAVGGTVTINCQASQSVYNGNRLGWYQLKPGQSPKELIHDASTLASGVPSRFRGSGSGTQFTLTINDVQCDDAATYYCVGSYACSTGDCNVFGGGTEVVVK", "notes": "Rabbit IgG from hybridoma, Protein G purified; also called m Id1 MoAb 37-2; Rabbit Monoclonal Anti-Mouse Id1 (#37-2)"}}, "key": {"[1]": {"target": "Human Id1: Histidine (human) (UniProt P41134)", "sequence (P41134 whole entry)": "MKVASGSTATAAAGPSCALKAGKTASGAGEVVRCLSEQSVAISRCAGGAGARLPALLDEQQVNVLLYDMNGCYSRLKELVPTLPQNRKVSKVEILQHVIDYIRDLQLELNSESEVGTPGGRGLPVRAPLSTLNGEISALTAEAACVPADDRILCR", "test": "sandwich ELISA, 5-3-coated wells, human Id1:His 0 ng/ml (blank), detected with rabbit polyclonal B-5133-HRP"}, "[2]": {"target": "Human Id1: Histidine (human) (UniProt P41134)", "test": "sandwich ELISA, 5-3-coated wells, human Id1:His 2.5 ng/ml, detected with rabbit polyclonal B-5133-HRP"}, "[3]": {"target": "Human Id1: Histidine (human) (UniProt P41134)", "test": "sandwich ELISA, 5-3-coated wells, human Id1:His 25.0 ng/ml, detected with rabbit polyclonal B-5133-HRP"}, "[4]": {"target": "T1, Human Id3: Histidine (human, UniProt Q02535 1-119, limits assumed)", "T1 construct": "E. coli fusion protein (vector pGW07); also called h-Id3: His; not shown: His-tag", "T1 sequence (looked up)": "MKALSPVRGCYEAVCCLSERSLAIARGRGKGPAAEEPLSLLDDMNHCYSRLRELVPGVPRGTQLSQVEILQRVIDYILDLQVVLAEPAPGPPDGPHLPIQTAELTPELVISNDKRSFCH", "test": "ELISA, coated antigen, Ab 2.50 ug/ml", "procedure": "(§1) Incubate plates at 2-8° C. overnight (16-24 hours). [0145] 11. Shake off the BSA solution. [0146] 12. Dispense 250 μL of 2.5% sucrose solution into each well. [0147] 13. Incubate plates at 2-8° C. for 4 hours. [0148] 14. Shake off sucrose solution. [0149] 15. Dry in vacuum at room temperature overnight. Screening Method [0150] 1. Dispense 100 μL of antibody diluent, diluted rabbit polyclonal anti-Id1 into appropriate wells. […] 2. Incubate at room temperature with mechanical shaking at 750 rpm for 90 minutes. [0152] 3. Remove the incubation mixture by flicking plate content into an appropriate waste container, followed by rinsing the wells 5 times with distilled water. […] 4. Strike the wells sharply onto absorbent paper or paper towels to remove all residual water droplets. [0154] 5. Dispense 100 μL of Goat Anti-Rabbit IgG-HRP Conjugate Reagent into each well. Gently mix for 5 seconds. [0155] 6. Incubate at room temperature with mechanical shaking at 750 rpm for 90 minutes. […] 7. Repeat procedures 3 and 4. [0157] 8. Dispense 100 μL of TMB Reagent into each well. Gently mix for 5 seconds. [0158] 9. Incubate at room temperature with mechanical shaking at 750 rpm for 20 minutes. [0159] 10. Add 100 μL of Stop Solution (1N HCl) into each well. [0160] 11. Gently mix for 10 seconds to ensure a complete mixing. […] 12. Read optical density (absorbance) at 450 nm. Results from this assay were used to select the rabbit sera with the highest antibodies titer that selectively reacts with mouse Id1 or human Id1 or both.\n(§2) A comparison was carried out between the reactivity of the rabbit monoclonal anti-mouse Id1, clone #BCH-1/#37-2, of this invention and the mouse monoclonal anti-mouse/human Id1 from BD Pharmingen with the following antigens prepared in Example 5: mouse Id1:His, human Id1:His, human Id2:His, human Id3:His, and GST. These antigens and protein were used to coat the wells.\n(§3) Materials and methods were those described in Example 9 except (a) Pharmingen's mouse monoclonal anti-mouse Id1 was used in addition to the rabbit monoclonal anti-mouse Id1 (Example 10), and (b) goat anti-mouse IgG-HRP conjugate was used to process the wells treated with the Pharmingen monoclonal antibody and polyclonal goat anti-rabbit IgG-HRP conjugate was used to process wells treated with rabbit monoclonal anti-mouse Id1."}, "[5]": {"target": "T2, glutathione S-transferase (GST) (UniProt P08515 1-218 = GST)", "T2 construct": "Coated on wells as control for the fusion partner of the immunogen", "T2 sequence (P08515 whole entry, the tested form may be a part)": "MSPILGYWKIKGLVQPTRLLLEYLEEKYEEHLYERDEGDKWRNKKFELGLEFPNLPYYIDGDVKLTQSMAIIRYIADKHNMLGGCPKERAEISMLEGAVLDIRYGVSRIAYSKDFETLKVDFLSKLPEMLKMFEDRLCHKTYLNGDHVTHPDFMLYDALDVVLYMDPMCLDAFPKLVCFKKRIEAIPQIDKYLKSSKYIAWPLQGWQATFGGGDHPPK", "test": "ELISA, coated antigen, Ab 2.50 ug/ml", "procedure": "as §1, §2, §3"}, "[6]": {"target": "T2, glutathione S-transferase (GST)", "test": "ELISA, coated antigen, Ab 1.00 ug/ml", "procedure": "as §1, §2, §3"}, "[7]": {"target": "T3, Mouse Id1: Histidine (mouse, UniProt P20067-2 1-148)", "T3 construct": "E. coli fusion protein (vector pGW07); also called m-Id1-His; not shown: His-tag", "T3 sequence": "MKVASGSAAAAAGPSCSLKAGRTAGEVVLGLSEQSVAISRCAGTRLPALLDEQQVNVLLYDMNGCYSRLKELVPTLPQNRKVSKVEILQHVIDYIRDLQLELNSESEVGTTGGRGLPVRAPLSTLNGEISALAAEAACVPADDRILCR", "test": "ELISA, coated antigen, Ab 0.50 ug/ml", "procedure": "as §1, §2, §3"}, "[8]": {"target": "T1, Human Id3: Histidine", "test": "ELISA, coated antigen, Ab 0.50 ug/ml", "procedure": "as §1, §2, §3"}, "[9]": {"target": "T4, Human Id2: Histidine (human, UniProt Q02363 1-134, limits assumed)", "T4 construct": "E. coli fusion protein (vector pGW07); also called h-Id2: His; not shown: His-tag", "T4 sequence (looked up)": "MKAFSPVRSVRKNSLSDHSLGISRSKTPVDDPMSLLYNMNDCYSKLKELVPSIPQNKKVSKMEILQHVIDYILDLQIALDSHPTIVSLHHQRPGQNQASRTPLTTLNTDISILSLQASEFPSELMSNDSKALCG", "test": "ELISA, coated antigen, Ab 0.50 ug/ml", "procedure": "as §1, §2, §3"}, "[10]": {"target": "T2, glutathione S-transferase (GST)", "test": "ELISA, coated antigen, Ab 0.50 ug/ml", "procedure": "as §1, §2, §3"}, "[11]": {"target": "T3, Mouse Id1: Histidine", "test": "ELISA, coated antigen, Ab 0.10 ug/ml", "procedure": "as §1, §2, §3"}, "[12]": {"target": "T1, Human Id3: Histidine", "test": "ELISA, coated antigen, Ab 0.10 ug/ml", "procedure": "as §1, §2, §3"}, "[13]": {"target": "T4, Human Id2: Histidine", "test": "ELISA, coated antigen, Ab 0.10 ug/ml", "procedure": "as §1, §2, §3"}, "[14]": {"target": "T2, glutathione S-transferase (GST)", "test": "ELISA, coated antigen, Ab 0.10 ug/ml", "procedure": "as §1, §2, §3"}, "[15]": {"target": "T2, glutathione S-transferase (GST)", "test": "ELISA, coated antigen, Ab up to 10.0 ug/ml", "summary_of_the_method": "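Wells were coated with glutathione S-transferase and handled by an ELISA protocol. Coating buffers were 0.2 M sodium phosphate pH 6.5 and 10 mM potassium phosphate pH 7.4, with BSA/sodium azide and sucrose solutions. Antibodies were applied up to 10.0 ug/ml. Bound rabbit antibody was detected with goat anti-rabbit IgG-HRP conjugate and bound mouse antibody with goat anti-mouse IgG-HRP conjugate.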"}}}
{"molecule": "rabbit monoclonal anti-human Id1, clone #BCH-2/#5-3 (antibody)", "values": [{"measurement": "A450", "setting": "[1]", "result": 0.046, "unit": "A450"}, {"measurement": "A450", "setting": "[2]", "result": 0.244, "unit": "A450"}, {"measurement": "A450", "setting": "[3]", "result": 1.94, "unit": "A450"}]}
{"molecule": "B1", "values": [{"measurement": "A450", "setting": "[4]", "result": 0.069, "unit": "A450"}, {"measurement": "A450", "setting": "[5]", "result": 0.068, "unit": "A450"}, {"measurement": "A450", "setting": "[6]", "result": 0.062, "unit": "A450"}, {"measurement": "A450", "setting": "[7]", "result": 2.46, "unit": "A450"}, {"measurement": "A450", "setting": "[8]", "result": 0.052, "unit": "A450"}, {"measurement": "A450", "setting": "[9]", "result": 0.052, "unit": "A450"}, {"measurement": "A450", "setting": "[10]", "result": 0.053, "unit": "A450"}, {"measurement": "A450", "setting": "[11]", "result": 1.29, "unit": "A450"}, {"measurement": "A450", "setting": "[12]", "result": 0.048, "unit": "A450"}, {"measurement": "A450", "setting": "[13]", "result": 0.049, "unit": "A450"}, {"measurement": "A450", "setting": "[14]", "result": 0.047, "unit": "A450"}, {"measurement": "binding result", "setting": "[15]", "result": "no binding"}]}
